Assay results reported in article PMC8376421.

Target: recombinant hACE2-AviTag protein (human) (UniProt Q9BYF1)
Assay: SPR

Chain of UniProt Q9BYF1 (Q9BYF1 18-740): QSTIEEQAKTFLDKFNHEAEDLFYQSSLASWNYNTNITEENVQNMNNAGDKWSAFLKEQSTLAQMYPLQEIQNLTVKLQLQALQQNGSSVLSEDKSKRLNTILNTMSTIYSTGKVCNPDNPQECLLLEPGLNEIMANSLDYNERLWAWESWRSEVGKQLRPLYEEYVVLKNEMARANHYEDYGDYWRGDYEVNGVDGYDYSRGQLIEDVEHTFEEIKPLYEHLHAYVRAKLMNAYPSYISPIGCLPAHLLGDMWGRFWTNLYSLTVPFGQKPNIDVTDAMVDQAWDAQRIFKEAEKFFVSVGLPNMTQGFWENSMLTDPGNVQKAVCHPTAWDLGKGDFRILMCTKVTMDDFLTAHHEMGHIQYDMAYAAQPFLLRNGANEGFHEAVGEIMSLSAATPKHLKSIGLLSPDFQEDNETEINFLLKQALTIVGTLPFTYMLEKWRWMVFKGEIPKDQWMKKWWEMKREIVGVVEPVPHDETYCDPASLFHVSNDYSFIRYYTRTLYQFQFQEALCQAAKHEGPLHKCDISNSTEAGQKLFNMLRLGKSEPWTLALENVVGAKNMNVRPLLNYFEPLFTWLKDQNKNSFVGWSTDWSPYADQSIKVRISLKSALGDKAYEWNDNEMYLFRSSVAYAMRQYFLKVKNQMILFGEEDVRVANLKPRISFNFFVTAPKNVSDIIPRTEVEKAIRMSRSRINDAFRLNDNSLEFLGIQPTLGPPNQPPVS

“SARS-CoV-2 spike RBD-MBP fusion protein (domain or fragment)” gave a Kd of 19 nM.
